Where no end group is shown, it is not given here.
How the values were obtained:
[1] = target: T1, actin (Example II solid-phase assay and BIAcore; source not stated) (Oryctolagus cuniculus (Rabbit), UniProt P68135 3-377); test: solid-phase actin binding assay (ELISA, immobilized actin), double reciprocal plot
Experimental: (§1) 96-well plates (MaxiSorp® flat-bottom 96-well plate, Fisher Scientific Inc., Fair Lawn, N.J.) were coated with 500 ng actin in 100 μl carbonate-bicarbonate buffer (pH 9.5) for 1 h at 37° C. The plate was washed once with TBS and then blocked with 3% BSA in 200 μl TBS buffer at 37° C., for 1 h. […] The wells were washed three times with TBST and then incubated with 100 μl goat anti-rabbit IgG-HRP (Jackson ImmunoResearch, West Grove, Pa.) diluted 1:10,000 in TBS, for 1 h at 37° C. Wells were then washed twice with TBST, and once with TBS before 100 μl substrate (1-step Ultra TMB-ELISA, Pierce, Fisher Scientific Inc.) were added. Absorbance at 655 nm was measured 10 min thereafter using a Power Wave 200 Microplate Scanning Spectrophotometer (Bio-Tek Instrument, Winooski, Vt.). Affinity was evaluated by double reciprocal plotting.
(§2) For further insight on the actin binding site within the hRNASET2 protein sequence 29 candidate peptides were tested for their ability to bind actin.

[2] = target: T1, actin (Example II solid-phase assay and …); test: SPR, BIAcore 3000, actin amine-coupled to CM5 chip; column heads taken as printed
Experimental: (§3) SPR was performed on a BIAcore 3000 instrument (BIAcore, Uppsala, Sweden). Actin was diluted in 100 mM CH3COONa pH 4.6 to a final concentration of 20 μg/ml (200 μl total) resulting in ˜1 ng immobilized actin on a CM5 BIAcore sensor chip (GE Healthcare Bio-Sciences AB) using the standard BIAcore amine coupling chemistry protocol. The CM5 chip allows four separate flow cells to be operated in the BIAcore 3000 instrument used in these experiments. Coupling is achieved by activating the surface of the sensor chips with equal volumes of 50 mM N-hydroxysuccimide (NHS)/200 mM Nethyl-N-(3-[…])-carboiimide (EDC) (BIAcore, AB, Uppsala, Sweden) to form activated carboxyl groups. An actin solution (15 μg/ml) was run over the chip for 5 min at a rate of 10 μl/min, allowing the amine groups on the protein to react with the activated esters. In the final stage of immobilization, the surface was blocked by 1M ethanol amine, pH 8.0. […] Injections were performed simultaneously over all four channels and blank surface (a plain dextran matrix, channel 1) was used as control. The net signal was obtained by subtracting the blank signal from the signal of the immobilized surface. The association phase for protein or peptides binding to actin was followed for 4 min, and dissociation phases were monitored for 3 min. Surface regeneration between consecutive binding cycles included a 1 min injection of 1 mM NaOH. The response was monitored as a function of time (sensorgram) at 25° C. Multi-concentration data were globally fit using BIA evaluation 3.2 software.

[3] = target: T1, actin (Example II solid-phase assay and …); test: solid-phase actin binding assay: 500 ng actin coated per well, peptide in 1:2 dilutions from 500 ng/well, rabbit anti-trT2-49 and goat anti-rabbit IgG-HRP, A655
Experimental: as §1, §2

[4] = target: T1, actin (Example II solid-phase assay and …); test: SPR, BIAcore 3000, actin amine-coupled to CM5 chip
Experimental: as §3

[5] = target: T1, actin (Example II solid-phase assay and …); test: solid-phase actin binding assay: 500 ng actin coated per well, protein in 1:2 dilutions from 500 ng/well, rabbit anti-trT2-49 and goat anti-rabbit IgG-HRP, A655
Experimental: as §1
To further evaluate the strength of this interaction BIAcore analysis was performed in order to quantify and understand the kinetics of the interaction between these two molecules.

[6] = target: T1, actin (Example II solid-phase assay and …); test: not given; presumably the solid-phase actin binding assay of the 29 peptides
[7] = target: T1, actin (Example II solid-phase assay and …); test: solid-phase actin binding assay: 500 ng actin coated per well, protein in 1:2 dilutions from 500 ng/well, rabbit anti-trT2-49 and goat anti-rabbit IgG-HRP, A655; remark: listed apart in the source
Experimental: as §1, §2

[8] = target: T1, actin (Example II solid-phase assay and …); test: as above; remark: listed apart in the source
Experimental: as §1, §2

| Binder | Kd [1] [µM] | Kd [2] [µM] | koff [2] [s⁻¹] | EC50 (read off the curve) [3] [ng/100ul] | kon [4] [M⁻¹ s⁻¹] | EC50 (read off the curve) [5] [ng/100ul] | binding result [6] | EC50 (read off the curve) [7] [ng/100ul] | EC50 (read off the curve) [8] [ng/100ul] |
| --- | --- | --- | --- | --- | --- | --- | --- | --- | --- |
| peptide A103-Q159 (Synthetic peptide of human RNASET2, tested free in solution; also called 22A) peptide: ALNSQKKYFGRSLELYRELDLNSVLLKLGIKPSINYYQVADFKDALARVYGVIPKIQ | 0.068 | 0.00322 | 3.04 | ~20 | – | – | – | – | – |
| KKYFGRSLELYRELDLNSVLLKLGIK (not fully specified, Synthetic 26 aa peptide of human RNASET2 (helix 5 and 6), tested free in solution in ELISA and SPR; also called 22B; T2 peptide) [peptide K108-K133] | – | 14.2 | 0.0458 | – | 3320 | – | – | – | – |
| truncated RNASET2 polypeptide trT2-49 (other, Described as amino acids 49-232 of full length, native RNASET2; also called truncated T2 polypeptide) EGCNRSWPFNLEEIKDLLPEMRAYWPDVIHSFPNRSRFWKHEWEKHGTCAAQVDALNSQKKYFGRSLELYRELDLNSVLLKLGIKPSINYYQVADFKDALARVYGVIPKIQCLPPSQDEEVQTIGQIELCLTKQDQQLQNCTEPGEQPSPKQEVWLANGAAESRGLRVCEDGPVFYPPPKKTKH | – | 7.72 | 0.0132 | – | 1710 | ~30 | – | ~30 | ~30 |

Results, then the binder that gave them:

| Kd [1] [µM] | Kd [2] [µM] | koff [2] [s⁻¹] | EC50 (read off the curve) [3] [ng/100ul] | kon [4] [M⁻¹ s⁻¹] | EC50 (read off the curve) [5] [ng/100ul] | binding result [6] | EC50 (read off the curve) [7] [ng/100ul] | EC50 (read off the curve) [8] [ng/100ul] | Binder |
| --- | --- | --- | --- | --- | --- | --- | --- | --- | --- |
| – | 19.4 | 0.00969 | – | 500 | ~20 | – | – | – | trT2-49m polypeptide (other) EGCNRSWPFNLEEIKDLLPEMRAYWPDVIHSFPNRSRFWKHEWEKHGTCAAQVDALNSQKKYFGRSLELYRADFKDALARVYGVIPKIQCLPPSQDEEVQTIGQIELCLTKQDQQLQNCTEPGEQPSPKQEVWLANGAAESRGLRVCEDGPVFYPPPKKTKH |
| – | – | – | – | – | – | no binding | – | – | KKYFGRSLELYRELDL (also called K108-L123 (16 aa)) [peptide K108-L123] |

Reference: patent publication US20160340659A1 (YISSUM RESEARCH AND DEVELOPMENT COMPANY OF THE HEBREW …, published 2016)
